According to publication PMC3565990:

Molecular target: SHP-1 (UniProt P29351)
Test: anti-FLAG IP, anti-SHP-1 Western blot
Settings: reference: wild-type CD72fl, NP-BSA stimulated; sites Y7

human CD72fl (FLAG-tagged) (from UniProt P21854) CD72flYF (Y7F), NP-BSA stimulated
binding against the reference: lost
